Measurements published in patent US20190241648A1 (STATEN BIOTECHNOLOGY B V, published 2019).
Values belong to the binder of their own block, whether it stands above or below them. Ends that are not written are not given here.

Experiments:
ApoC3 peptide … F61I = molecular target: T1, ApoC3 peptide … F61I (human, cyclic constrained); assay: cyclic peptide substitution array
T1 peptide: DKISEFWDLDPEV

ApoC3 peptide … L67N = molecular target: T2, ApoC3 peptide … L67N (human, not fully specified (bridges); also: cyclic constrained); assay: cyclic peptide substitution array
T2 peptide: DKFSEFWDNDPEV

ApoC3 peptide … E63W = ApoC3 peptide … E63W (human, cyclic constrained); assay: cyclic peptide substitution array
ApoC3 peptide F64C = molecular target: T3, ApoC3 peptide F64C (human, cyclic (thioether)); assay: cyclic peptide substitution array
T3 peptide: DKFSECWDLDPEV
Description: (§1) S62 and D68 of mature huApoC3 were also highly conserved; substitution of S62 by A or V, and substitution of D68 by E or P, caused decrease of spot intensities by ˜60% or higher. […] Amino acid F64 was completely variable.
(§2) Pre: staining of one of the ApoC3 peptide microarrays was done with the secondary antibody goat anti-human IgG (Fe) DyLight680 (1:5000) and control antibody mouse monoclonal anti-HA (12CA5) DyLight800 (1:2000) to investigate background interactions of the secondary antibody with the antigen-derived peptides that could interfere with the main assays. Subsequent incubation of other ApoC3 peptide microarrays with antibody samples was followed by staining with secondary and control antibodies as well as read-out at scanning intensities of 7/7 (red/green). The additional HA peptides framing the peptide arrays were stained as internal quality control to confirm the assay quality and the peptide microarray integrity.

ApoC3 peptide E63D = molecular target: T4, ApoC3 peptide E63D (human, not fully specified; cyclic (thioether)); assay: cyclic peptide substitution array
T4 peptide: DKFSDFWDLDPEV
Description: as §1, §2

ApoC3 peptide F64D = molecular target: T5, ApoC3 peptide F64D (human, cyclic (thioether)); assay: cyclic peptide substitution array
T5 peptide: DKFSEDWDLDPEV
Description: as §1, §2

ApoC3 peptide D66E = molecular target: T6, ApoC3 peptide D66E (human, not fully specified; cyclic (thioether)); assay: cyclic peptide substitution array
T6 peptide: DKFSEFWELDPEV
Description: as §1, §2

ApoC3 peptide D68K = molecular target: T7, ApoC3 peptide D68K (human, cyclic (thioether)); assay: cyclic peptide substitution array
T7 peptide: DKFSEFWDLKPEV
Description: as §1, §2

ApoC3 peptide F61Q = molecular target: T8, ApoC3 peptide F61Q (human, cyclic (thioether)); assay: cyclic peptide substitution array
T8 peptide: DKQSEFWDLDPEV
Description: as §1, §2

ApoC3 peptide F61R = molecular target: T9, ApoC3 peptide F61R (human, cyclic (thioether)); assay: cyclic peptide substitution array
T9 peptide: DKRSEFWDLDPEV
Description: as §1, §2

ApoC3 peptide F64S = molecular target: T10, ApoC3 peptide F64S (human, thioether (positions not given here); not fully specified (bridges); also: cyclic (thioether), positions not given here); assay: cyclic peptide substitution array
T10 peptide: DKFSESWDLDPEV
Description: as §1, §2

ApoC3 peptide P69W = molecular target: T11, ApoC3 peptide P69W (human, not fully specified; cyclic (thioether)); assay: cyclic peptide substitution array
T11 peptide: DKFSEFWDLDWEV
Description: as §1, §2

ApoC3 peptide S62C = molecular target: T12, ApoC3 peptide S62C (human, not fully specified; cyclic (thioether)); assay: cyclic peptide substitution array
T12 peptide: DKFCEFWDLDPEV
Description: as §1, §2

ApoC3 peptide … V43A = molecular target: T13, ApoC3 peptide … V43A (human, not fully specified; cyclic constrained); assay: peptide microarray
T13 peptide: ARGWATDGFSSLK
Outline: (§3)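 Peptide microarrays of ApoC3-derived peptides incubated with antibody samples, then stained with goat anti-human IgG (Fc) DyLight680 (1:5000) and anti-HA DyLight800 (1:2000) control. Read-out by fluorescence scanning at intensities 7/7 (red/green); a secondary-only pre-stain checked background, HA frame peptides served as quality control.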

ApoC3 peptide … G41C = molecular target: T14, ApoC3 peptide … G41C (human, also: cyclic constrained); assay: peptide microarray
T14 peptide: ARCWVTDGFSSLK
Outline: as §3

ApoC3 peptide … D45C = molecular target: T15, ApoC3 peptide … D45C (human, not fully specified (bridges); also: cyclic constrained); assay: peptide microarray
T15 peptide: ARGWVTCGFSSLK
Outline: as §3

ApoC3 peptide … A39G = molecular target: T16, ApoC3 peptide … A39G (human, cyclic constrained); assay: peptide microarray
T16 peptide: GRGWVTDGFSSLK
Outline: as §3

ApoC3 peptide … L50G = molecular target: T17, ApoC3 peptide … L50G (human, not fully specified; cyclic constrained); assay: peptide microarray
T17 peptide: ARGWVTDGFSSGK
Outline: as §3

ApoC3 peptide … D45H = molecular target: T18, ApoC3 peptide … D45H (human, cyclic constrained); assay: peptide microarray
T18 peptide: ARGWVTHGFSSLK
Outline: as §3

ApoC3 peptide … G41I = molecular target: T19, ApoC3 peptide … G41I (human, also: cyclic constrained); assay: peptide microarray
T19 peptide: ARIWVTDGFSSLK
Outline: as §3

ApoC3 peptide … G46I = molecular target: T20, ApoC3 peptide … G46I (human, not fully specified (bridges); also: cyclic constrained); assay: peptide microarray
T20 peptide: ARGWVTDIFSSLK
Outline: as §3

ApoC3 peptide … G41K = molecular target: T21, ApoC3 peptide … G41K (human, also: cyclic constrained); assay: peptide microarray
T21 peptide: ARKWVTDGFSSLK
Outline: as §3

ApoC3 peptide … G46L = molecular target: T22, ApoC3 peptide … G46L (human, not fully specified (bridges); also: cyclic constrained); assay: peptide microarray
T22 peptide: ARGWVTDLFSSLK
Outline: as §3

ApoC3 peptide … S48L = molecular target: T23, ApoC3 peptide … S48L (human, not fully specified (bridges); also: cyclic constrained); assay: peptide microarray
T23 peptide: ARGWVTDGFLSLK
Outline: as §3

ApoC3 peptide … R40S = molecular target: T24, ApoC3 peptide … R40S (human, not fully specified (bridges); also: cyclic constrained); assay: peptide microarray
T24 peptide: ASGWVTDGFSSLK
Outline: as §3

ApoC3 peptide … K51S = molecular target: T25, ApoC3 peptide … K51S (human, not fully specified; cyclic constrained); assay: peptide microarray
T25 peptide: ARGWVTDGFSSLS
Outline: as §3

ApoC3 peptide … K51T = molecular target: T26, ApoC3 peptide … K51T (human, not fully specified; cyclic constrained); assay: peptide microarray
T26 peptide: ARGWVTDGFSSLT
Outline: as §3

ApoC3 peptide … T44V = molecular target: T27, ApoC3 peptide … T44V (human, not fully specified (bridges); also: cyclic constrained); assay: peptide microarray
T27 peptide: ARGWVVDGFSSLK
Outline: as §3

ApoC3 peptide … R40Y = molecular target: T28, ApoC3 peptide … R40Y (human, thioether (positions not given here); also: cyclic constrained); assay: peptide microarray
T28 peptide: AYGWVTDGFSSLK
Outline: as §3

ApoC3 peptide … K51Y = molecular target: T29, ApoC3 peptide … K51Y (human, not fully specified; cyclic constrained); assay: peptide microarray
T29 peptide: ARGWVTDGFSSLY
Outline: as §3

% of binding to wild-type peptide (ApoC3 peptide … F61I): 7.59%
% of binding to wild-type peptide (ApoC3 peptide … L67N): 9.84%
% of binding to wild-type peptide (ApoC3 peptide … E63W): 9.57%
% of binding to wild-type peptide (ApoC3 peptide F64C): 51%
% of binding to wild-type peptide (ApoC3 peptide E63D): 29.9%
% of binding to wild-type peptide (ApoC3 peptide F64D): 259%
% of binding to wild-type peptide (ApoC3 peptide D66E): 2.16%
% of binding to wild-type peptide (ApoC3 peptide D68K): 0.04%
% of binding to wild-type peptide (ApoC3 peptide F61Q): 75.6%
% of binding to wild-type peptide (ApoC3 peptide F61R): 2.77%
% of binding to wild-type peptide (ApoC3 peptide F64S): 367%
% of binding to wild-type peptide (ApoC3 peptide P69W): 5.36%
% of binding to wild-type peptide (ApoC3 peptide S62C): 0%
B1: Llama antibody 5E5 (antibody, V domains shown)
VH: QLQLVESGGGLVQPGGSLRLSCAASGFTFGTYSMRWVRQVPRKALEWVSSISTDGGGTAYRDSVKGRFTISRDNAKNTLYLQMNNLKPEDTAIYYCVIAGYSDWGQGTQVTVSS
VL: ATMLTQSPGSLSVVPGESASISCKTSQGLVHSDGKTYFYWFLQKPGQSPQQLIYQVSNRASGVPDRFTGSGSGTDFTLKISGVKAEDAGVYYCAQGTYYPHTFGSGTRLEIK
notes: detected with goat anti-human IgG (Fc); also called mAb 5E5

% of binding to wild-type peptide (ApoC3 peptide … V43A): 26.9%
% of binding to wild-type peptide (ApoC3 peptide … G41C): 14.8%
% of binding to wild-type peptide (ApoC3 peptide … D45C): 11.2%
% of binding to wild-type peptide (ApoC3 peptide … A39G): 93%
% of binding to wild-type peptide (ApoC3 peptide … L50G): 0%
% of binding to wild-type peptide (ApoC3 peptide … D45H): 1.81%
% of binding to wild-type peptide (ApoC3 peptide … G41I): 5.33%
% of binding to wild-type peptide (ApoC3 peptide … G46I): 0%
% of binding to wild-type peptide (ApoC3 peptide … G41K): 18%
% of binding to wild-type peptide (ApoC3 peptide … G46L): 0%
% of binding to wild-type peptide (ApoC3 peptide … S48L): 19.6%
% of binding to wild-type peptide (ApoC3 peptide … R40S): 54.7%
% of binding to wild-type peptide (ApoC3 peptide … K51S): 27.5%
% of binding to wild-type peptide (ApoC3 peptide … K51T): 17.5%
% of binding to wild-type peptide (ApoC3 peptide … T44V): 4.26%
% of binding to wild-type peptide (ApoC3 peptide … R40Y): 37.5%
% of binding to wild-type peptide (ApoC3 peptide … K51Y): 0%
B2: anti-ApoC3 antibody 14C7 (antibody, V domains shown)
VH: QVQVQESGPGLVKPSQTLSLTCTVSGGSITTNSYYWSWIRQPPGKGLEWMGAIDYSGDTYYSPSLKSRTSISRDTSKNQFTLQLTSVTPEDTAVYYCVSRIPTGEYWGQGTQVTVSS
VL: QTVVTQEPSLSVSPGGTVTLTCGLNSGSVTSSNYPDWYQQTPGQAPRLLIYNTNSRHSGVPSRFSGSISGNKAALTITGAQPEDEADYYCALYMGSDSVVFGGGTHLTVL
notes: it was detected with goat anti-human IgG (Fc); also called mAb 14C7; llama antibody 14C7
